Test results taken from US11866736B2, “Protein prostheses for mitochondrial diseases or conditions” (The General Hospital Corporation, priority 2015, dated 2024).

System: HeLa Tet3G cells
Experiment: Glucose concentration-dependent cell survival
Format: cell-based, human
Protocol: Images of 96-well plates with fixed cells stained with Hoechst 33345 were collected using Molecular Devices IMAGEXPRESS® Micro XLS. Four images were taken to cover the whole well. Images were analyzed and nuclei number per well was counted using CellProfiler 2.0 image analysis software (Carpenter, et al., Genome Biol., 7:R100, 2006; and Kamentsky, et al., Bioinformatics, 27:1179, 2011).
Ten thousand HeLa Tet3G NDI1, Luciferase, LbNOX or mitoLbNOX cells were seeded in 200 μl of DMEM (DMEM (US Biological, D9800), 3.7 g/L NaHCO3, 10% dialyzed FBS (Life Technologies, 26400-044)) per well of a black 96-well plate with clear bottom (Corning, 3904). Twenty four hours after seeding, 10 μl of 6 μg/ml doxycycline (300 ng/ml final concentration) or water was added to each well. Twenty four hours after addition of doxycycline, media was exchanged to DMEM (DMEM (US Biological, D9800), 3.7 g/L NaHCO3, 10% dialyzed FBS (Life Technologies, 26400-044))±300 ng/ml doxycycline. […] After 24 hours, media was aspirated and cells were fixed by adding 100 μl of 4% paraformaldehyde in PBS and incubating at room temperature for at least 30 min. Paraformaldehyde solution was aspirated and cells were stained with 200 μl of 1 μg/ml Hoechst 33345. Plates were covered with sealing aluminum foil and stored at 4° C. before counting cells in each well with Molecular Dynamics IMAGEXPRESS® Ultra (see “Nuclei counting using Molecular Devices IMAGEXPRESS® Ultra,” above).

B1: LbNOX: water-forming NADH oxidase endogenous to Lactobacillus brevis; tested with C-terminal FLAG tag (protein, listed as Lactobacillus brevis)
chain: KVTVVGCTHAGTFAIKQILAEHPDAEVTVYERNDVISFLSCGIALYLGGKVADPQGLFYSSPEELQKLGANVQMNHNVLAIDPDQKTVTVEDLTNHAQTTESYDKLVMTSGSWPIVPKIPGIDSDRVKLCKNWAHAQALIEDAKEAKRITVIGAGYIGAELAEAYSTTGHDVTLIDAMARVMPKYFDADFTDVIEQDYRDHGVQLALGETVESFTDSATGLTIKTDKNSYETDLAILCIGFRPNTDLLKGKVDMAPNGAIITDDYMRSSNPDIFAAGDSAAVHYNPTHQNAYIPLATNAVRQGILVGKNLVKPTVKYMGTQSSSGLALYDRTIVSTGLTLAAAKQQGLNAEQVIVEDNYRPEFMPSTEPVLMSLVFDPDTHRILGGALMSKYDVSQSANTLSVCIQNENTIDDLAMVDMLFQPNFDRPFNYLNILAQAAQAKVAQSVNA
modifications: C-terminal FLAG tag
effect on decrease in cell number (cell survival) at low glucose concentrations in the presence of piericidin (1 μM piericidin, 24 hours): no effect | effect on decrease in cell number (cell survival) at low glucose concentrations in the presence of antimycin (antimycin): no effect
